Assay [1] addresses T1, human IL-18 (human, UniProt Q14116 37-193).
T1 construct: also called hIL-18
T1 sequence: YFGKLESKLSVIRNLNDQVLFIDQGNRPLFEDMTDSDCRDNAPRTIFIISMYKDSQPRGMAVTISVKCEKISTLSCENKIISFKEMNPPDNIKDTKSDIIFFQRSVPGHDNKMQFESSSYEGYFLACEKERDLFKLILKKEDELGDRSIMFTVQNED
Nature of the assay: immunoprecipitation (row 'Human IL-18 immunoprecipitation').

Assay [2] has as its target T2, mouse IL-18 (mouse, UniProt P70380 36-192).
T2 construct: also called murine IL-18
T2 sequence: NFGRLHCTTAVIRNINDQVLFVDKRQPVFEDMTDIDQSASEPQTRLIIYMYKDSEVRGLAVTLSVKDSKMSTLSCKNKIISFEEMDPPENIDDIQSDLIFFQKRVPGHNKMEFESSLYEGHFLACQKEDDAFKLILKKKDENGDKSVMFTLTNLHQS
Put plainly: Biacore (row 'Human/mouse IL-18 Biacore'). For orientation: SPR reads the build-up and loss of mass on a sensor chip optically.

The target in assay [3] is T1, human IL-18. Nature of the assay: Biacore (row 'Human/mouse IL-18 Biacore').

B1: tagged YCI (YMTV IL-18 bp with a C-terminal myc/his tag) (other)
chain: EKECDKHRSVNIQVPMKETSEVLLRCTGSSYFKHFSYVYWLVGESETVDQLQQNSGYGETSHPSKPHECGNLPSADLVLTNMTEKMRDTKLTCVLMDPDGHIDESLVLREVWDCFNKT
notes: also called 6xHis-tagged YCI; his-tagged version of the YCI
With B1, the binding result in assay [1] and in assay [2] was “binds” each time.

B2: untagged YCI (YMTV IL-18 bp, YMTV Cytokine Inhibitor, without tag) (other)
chain: EKECDKHRSVNIQVPMKETSEVLLRCTGSSYFKHFSYVYWLVGESETVDQLQQNSGYGETSHPSKPHECGNLPSADLVLTNMTEKMRDTKLTCVLMDPDGHIDESLVLREVWDCFNKT
notes: also called IL-18 bp from YMTV; purified untagged YCI protein
As for B2, the binding result in assay [3] and in assay [2] was “binds” in each case.

These data come from patent US20090011979A1 (VIRON THERAPEUTICS, published 2009).
